The source of these data is article PMC12466997, “Coming Clean and Avoiding Bubble Trouble–Using Detergents Wisely in the Purification of Membrane Proteins for Cryo-EM Studies” (Biomolecules, 2025).

The stoichiometry N is a count of units in the complex or per binding partner.

Data set [1] concerns the molecule itself. Briefly: cryo-EM structure; MjCorA at 2 mg/mL in 50 mM Tris/HCl pH 8.0, 200 mM NaCl, DDM; initial 3D classification of ~550,000 particles, binned x4, resolution limited to ~6 Å.
Data set [2] concerns the molecule itself. Briefly: cryo-EM 2D class averages; WzzB^ST in DDM; 2D classes and an unmasked 3D reconstruction; smaller oligomer and end-to-end pseudo-D-symmetrical pairs of complexes.
Data set [3] deals with the molecule itself. Put plainly: cryo-EM structure; WzzB^ST at 10 mg/mL in 20 mM Tris pH 7.5, 150 mM NaCl, 0.025% DDM; single-particle analysis in RELION 5, ~4.2 Å, C6 ring of dimers; AlphaFold2 model fitted and refined.

B1: Methanocaldococcus jannaschii CorA (natural protein, UniProt Q58439 1-317, looked up)
chain: MITVIAIAKDGSIVEPKLDEISFEDYRLIWIDCYDPKDEELYKLSKKIGISVSDLQIGLDEQEIPRVEEDEDFYLIIYKAPLFEEDITTTSLGIYIKNNLLLTIHSDKIKAIGRLHKLISTKKPRIVFERGIGFLLYHILNEITRSYSRILMNLEDELEELEDKLLAGYDREVMEKILGLRKTLVYFHKSLIANRDVLVLLKRKYLPITTKEDRENFEDLYYDTLQLIDMSATYREVLTSMMDITLSLENIKMNQIMKILTMVTTIFAVPMWITGIYGMNFSYLPLANNPQGFWLVMALMVVIIMIFVYIFRRSGWI
notes: CorA magnesium channel (divalent metal ion transporter) of Methanocaldococcus jannaschii, E. coli codon-optimised, in pET15b; The HA tag is said to precede MjCorA; the His-tag was removed by thrombin; also called MjCorA; McCorA
For the protein B1, in data set [1], the “stoichiometry N” value is 5.

B2: WzzB^ST (natural protein)
chain: MTVDSNTSSGRGNDPEQIDLIELLLQLWRGKMTIIVAVIIAILLAVGYLMIAKEKWTSTAIITQPDAAQVATYTNALNVLYGGNAPKISEVQANFISRFSSAFSALSEVLDNQKEREKLTIEQSVKGQALPLSVSYVSTTAEGAQRRLAEYIQQVDEEVAKELEVDLKDNITLQTKTLQESLETQEVVAQEQKDLRIKQIEEALRYADEAKITQPQIQQTQDVTQDTMFLLGSDALKSMIQNEATRPLVFSPAYYQTKQTLLDIKNLKVTADTVHVYRYVMKPTLPVRRDSPKTAITLVLAVLLGGMIGAGIVLGRNALRSYKPKAL
notes: WzzB^ST, bacterial inner membrane polysaccharide copolymerase (O-antigen chain length regulator); the AlphaFold2 model AF-Q04866-F1 of the full-length protein was fitted into the map; periplasmic domain residues 55-289, TM residues 20-54 and 289-319; source: extraction and purification as previously described [65]; purified, in 20 mM Tris pH 7.5, 150 mM NaCl, 0.025% DDM; copies: 12
In the case of B2, the “stoichiometry N” value in data set [2] was ~4; in data set [3] it was 12.
